Legend:
Test in all cases: GST pull-down from GDP+AlF4- treated human platelet lysate, western blot
[1] = biological target: T1, Gα12 (endogenous, human platelet lysate) (human, UniProt Q03113 1-381)
T1 construct: mature
T1 sequence (looked up): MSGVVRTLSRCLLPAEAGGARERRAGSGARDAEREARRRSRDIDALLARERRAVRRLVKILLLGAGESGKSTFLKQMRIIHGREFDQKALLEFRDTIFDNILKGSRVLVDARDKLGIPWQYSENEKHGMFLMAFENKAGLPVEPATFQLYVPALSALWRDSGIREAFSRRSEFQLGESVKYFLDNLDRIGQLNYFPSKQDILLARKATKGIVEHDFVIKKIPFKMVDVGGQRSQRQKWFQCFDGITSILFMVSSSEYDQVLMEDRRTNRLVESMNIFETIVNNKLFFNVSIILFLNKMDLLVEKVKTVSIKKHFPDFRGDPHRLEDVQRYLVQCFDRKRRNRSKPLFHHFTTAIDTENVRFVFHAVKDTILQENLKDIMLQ
Description: (§1) Bound antibody was detected using goat […] (BioRad, Hercules, Calif.) and Supersignal West Pico ECL reagent (Pierce, Rockford, Ill.).
(§2) In order to determine the target alpha subunits of RGS18, binding experiments were performed using GST-RGS18 as prepared in Example 4 and lysates of human platelets. A similar method has been used to determine the binding specificity of hRGS16 using lysates from Jurkat cells (164). […] For these experiments, platelets were lysed in a Triton X-100 containing buffer and resuspended to 1 mg/ml. The lysate was then treated with GDP, which holds the alpha subunit in the GDP-bound “in-activated” state, or GDP+AlF₄⁻ that mimics the transition state of the Gα subunit. Recombinant GST-RGS18 bound to Sepharose-4 beads was added to the treated lysates, incubated and washed several times. Bound protein was eluted in Laemmli buffer and subjected to SDS-PAGE followed by western blot analysis. A panel of G protein alpha subunit specific antibodies was used to determine which alpha subunits bind to RGS18. […] In contrast, in lysates that have been treated with GDP+AlF₄⁻, RGS18 binds a significant amount of alpha subunit detected by antibodies directed against G_{αi1/2}, G_{α0/i3} and G_{αq/11}. […] Neither GST nor Sepharose 4B alone binds to any of these alpha subunits in either GDP or GDP+AlF₄⁻ treated platelet lysates (data not shown). The binding selectivity of RGS18 is consistent with that found for other RGS proteins which selectively bind to members of the Gαi family and/or Gαq family (14).

[2] = biological target: T2, Gαz (endogenous, human platelet lysate) (human, UniProt P19086 2-355)
T2 construct: mature; also called printed once as Gα2
Description: as §1, §2

[3] = biological target: T3, Gαq (endogenous, human platelet lysate) (human, UniProt P50148 1-359)
T3 construct: mature; also called Gαq/11; alpha subunit detected by antibodies directed against Gαq/11
T3 sequence (looked up): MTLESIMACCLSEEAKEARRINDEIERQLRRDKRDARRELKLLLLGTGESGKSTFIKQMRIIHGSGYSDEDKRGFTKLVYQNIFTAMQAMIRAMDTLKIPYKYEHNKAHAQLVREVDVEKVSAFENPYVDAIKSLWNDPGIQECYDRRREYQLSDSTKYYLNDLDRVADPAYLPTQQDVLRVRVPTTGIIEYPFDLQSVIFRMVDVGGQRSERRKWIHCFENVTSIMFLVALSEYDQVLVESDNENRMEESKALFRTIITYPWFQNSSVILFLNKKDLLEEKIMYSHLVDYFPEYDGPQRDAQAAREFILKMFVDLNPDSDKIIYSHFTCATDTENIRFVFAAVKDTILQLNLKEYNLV
Description: as §1, §2

[4] = biological target: T4, Gαs (endogenous, human platelet lysate) (human, UniProt P63092 2-394)
T4 construct: mature
Description: as §1, §2

T2 sequence (P19086 2-355): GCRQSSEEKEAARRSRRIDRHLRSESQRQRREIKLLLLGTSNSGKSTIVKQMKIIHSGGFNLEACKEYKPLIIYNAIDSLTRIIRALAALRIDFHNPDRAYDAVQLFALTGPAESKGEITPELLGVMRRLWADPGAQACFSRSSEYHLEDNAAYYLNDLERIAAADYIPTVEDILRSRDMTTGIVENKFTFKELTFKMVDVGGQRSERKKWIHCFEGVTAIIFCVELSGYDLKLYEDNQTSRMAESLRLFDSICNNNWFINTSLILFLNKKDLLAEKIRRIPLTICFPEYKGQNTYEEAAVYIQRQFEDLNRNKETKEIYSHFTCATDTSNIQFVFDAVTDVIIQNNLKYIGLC
T4 sequence (P63092 2-394): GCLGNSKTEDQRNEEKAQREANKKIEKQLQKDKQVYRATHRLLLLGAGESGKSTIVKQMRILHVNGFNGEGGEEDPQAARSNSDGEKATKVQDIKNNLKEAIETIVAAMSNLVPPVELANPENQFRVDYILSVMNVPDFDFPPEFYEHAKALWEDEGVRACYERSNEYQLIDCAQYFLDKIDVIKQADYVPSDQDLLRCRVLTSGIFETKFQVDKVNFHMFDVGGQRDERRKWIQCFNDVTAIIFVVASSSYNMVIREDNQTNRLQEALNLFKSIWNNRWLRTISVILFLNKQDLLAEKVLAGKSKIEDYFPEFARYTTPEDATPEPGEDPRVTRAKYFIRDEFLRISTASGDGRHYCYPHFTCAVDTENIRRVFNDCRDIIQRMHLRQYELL

B1: GST-RGS18 fusion protein coupled to glutathione-Sepharose 4B (other)
chain: METTLLFFSQINMCESKEKTFFKLIHGSGKEETSKEAKIRAKEKRNRLSLLVQKPEFHEDTRSSRSGHLAKETRVSPEEAVKWGESFDKLLSHRDGLEAFTRFLKTEFSEENIEFWIACEDFKKSKGPQQIHLKAKAIYEKFIQTDAPKEVNLDFHTKEVITNSITQPTLHSFDAAQSRVYQLMEQDSYTRFLKSDIYLDLMEGRPQRPTNLRRRSRSFTCNEFQDVQSDVAIWL
notes: The sense primer carries a few nucleotides upstream of the ATG, so a short extra linker between GST and Met1 is likely; also called recombinant GST-RGS18; GST-tagged fusion protein of RGS18; not shown: glutathione S-transferase (GST) tag encoded by plasmid pGEX-5X-1, N-terminal to RGS18 (in-frame Bam HI fusion); the fili
B1: no binding [1]; no binding [2]; binds [3]. B1: no binding [4].
